Data as given in paper PMC10801813, “In silico protein interaction screening uncovers DONSON’s role in replication initiation” (Science (New York, N.Y.), 2023).

Columns and labels:
[1] = biological target: T1, Recombinant Xenopus GINS (preparation of ref. 54, Sf9 expression) (Xenopus laevis, UniProt Q7ZT47 1-196; Q7ZT46 1-185; Q7ZT01 1-210; Q7ZT48 1-221); assay: co-IP; purified FLAG-DONSON, GINS and TOPBP1^1−530 mixed, each 0.5 μM in IP wash buffer, 15 min room temperature; anti-FLAG beads 30 min room temperature; immunoblot (fig. S11B, lanes 22 to 24); conditions: both partners purified
T1 construct: PSF1 subunit of Xenopus GINS; PSF2 subunit of Xenopus GINS; PSF3 subunit of Xenopus GINS; SLD5 subunit of Xenopus GINS; also called purified GINS; source: Sf9 expression, purified; copies: + + +
T1 sequence (looked up) 1: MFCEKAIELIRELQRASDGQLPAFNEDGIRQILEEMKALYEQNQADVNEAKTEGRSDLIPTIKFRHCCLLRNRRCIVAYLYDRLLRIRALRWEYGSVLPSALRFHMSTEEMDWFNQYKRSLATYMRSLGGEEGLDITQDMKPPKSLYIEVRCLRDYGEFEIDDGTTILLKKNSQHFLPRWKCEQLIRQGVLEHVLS
T1 sequence (looked up) 2: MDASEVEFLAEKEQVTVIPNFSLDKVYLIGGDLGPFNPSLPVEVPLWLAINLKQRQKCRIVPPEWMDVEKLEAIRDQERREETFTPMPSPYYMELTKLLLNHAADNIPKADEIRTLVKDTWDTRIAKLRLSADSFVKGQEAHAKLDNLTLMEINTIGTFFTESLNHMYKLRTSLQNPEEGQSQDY
T1 sequence (looked up) 3: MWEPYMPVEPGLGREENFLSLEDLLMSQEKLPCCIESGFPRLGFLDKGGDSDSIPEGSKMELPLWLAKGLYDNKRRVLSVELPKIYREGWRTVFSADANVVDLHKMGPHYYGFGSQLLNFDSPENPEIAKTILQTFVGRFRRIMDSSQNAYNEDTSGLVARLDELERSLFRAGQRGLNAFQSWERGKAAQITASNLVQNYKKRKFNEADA
T1 sequence (looked up) 4: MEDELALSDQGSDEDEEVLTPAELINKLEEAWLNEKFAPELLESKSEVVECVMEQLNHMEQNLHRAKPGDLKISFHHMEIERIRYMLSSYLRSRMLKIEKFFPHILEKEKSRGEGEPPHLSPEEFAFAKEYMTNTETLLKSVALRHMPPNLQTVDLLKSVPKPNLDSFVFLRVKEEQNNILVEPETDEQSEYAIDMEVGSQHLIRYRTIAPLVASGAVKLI

[2] = biological target: the molecule itself; assay: mass photometry; Refeyn TwoMP; FLAG-DONSON diluted to 200 nM in egg lysis buffer (10 mM HEPES-KOH pH 7.7, 50 mM KCl, 2.5 mM MgCl2, 250 mM sucrose), 2 μL mixed into an 18 μL droplet of PBS

B1: Recombinant FLAG-tagged DONSON, wild type (natural protein, Xenopus laevis, UniProt Q5U4U4 1-579, looked up)
chain: MAELLPGYSPSFKKPSEILRLSRRRSRSEASKTGLSPFSPGDVIKRVPGLRPFSPGPNKGAGVKRRNPFASLENTVCSPVKRRAETVAEYGAASLEPRALSAVRPSCLGQDSPEPPQFNSVEDVIWGDPLAADADPLVKTESPEKPAPACEIPKGSVTFPADWSLKTRLLFTSSHSFSWADHLKAQEEAQGLVMQCRATAVNLPHSIQEPKLSTDLRCAFQQSLVHWIHPSLPWVQLFPRIGVDRKMAGKNTPWSQDESLQQVLMSEWALSFTSLYNLLKAKLCPYFYVCTYQFTVLFRAAGLAGSDVITAVMSPTTRGLREAMKNEGITFSQPLVEDDTGKKQKKPEAASQGDINPEKENGTAEADEASDESDEDESFSWLEEMGVEDKIKKPDSISIKLRKEKNEVKLDHKPESVVLVKGTNTFTLLNFLINCKSIVAAAGLQAGLPPTLLSPVAFRGATMHALKARSVNVKTRVNSGYKDQFSLEITGPIMPHSLHSLTMLLQSAQRGSFSAGLYTHEPTAVFNTPIHSQAVKEISADLQNCGLHPCTVEQLTQVNELGKLSLRHLEMTDYRYTWK
notes: Xenopus DONSON (Downstream Neighbor of SON); also called rFLAG-DONSON; FLAG-DONSON; source: E. coli Rosetta (DE3) pLysS, purified (Glutathione Sepharose, PreScission cleavage, Superdex 200); not shown: GST, N-terminal, cleaved
binding result [1]: binds
stoichiometry N [2]: 2

B2: Recombinant FLAG-tagged DONSON N430A (natural protein, Xenopus laevis, UniProt Q5U4U4 1-579, looked up)
chain: MAELLPGYSPSFKKPSEILRLSRRRSRSEASKTGLSPFSPGDVIKRVPGLRPFSPGPNKGAGVKRRNPFASLENTVCSPVKRRAETVAEYGAASLEPRALSAVRPSCLGQDSPEPPQFNSVEDVIWGDPLAADADPLVKTESPEKPAPACEIPKGSVTFPADWSLKTRLLFTSSHSFSWADHLKAQEEAQGLVMQCRATAVNLPHSIQEPKLSTDLRCAFQQSLVHWIHPSLPWVQLFPRIGVDRKMAGKNTPWSQDESLQQVLMSEWALSFTSLYNLLKAKLCPYFYVCTYQFTVLFRAAGLAGSDVITAVMSPTTRGLREAMKNEGITFSQPLVEDDTGKKQKKPEAASQGDINPEKENGTAEADEASDESDEDESFSWLEEMGVEDKIKKPDSISIKLRKEKNEVKLDHKPESVVLVKGTNTFTLLAFLINCKSIVAAAGLQAGLPPTLLSPVAFRGATMHALKARSVNVKTRVNSGYKDQFSLEITGPIMPHSLHSLTMLLQSAQRGSFSAGLYTHEPTAVFNTPIHSQAVKEISADLQNCGLHPCTVEQLTQVNELGKLSLRHLEMTDYRYTWK
notes: Xenopus DONSON with N430A; source: E. coli Rosetta (DE3) pLysS, purified (Glutathione Sepharose, PreScission cleavage, Superdex 200); not shown: GST, N-terminal, cleaved
binding result [1]: binds
